Reference: patent US20230257458A1 (SUNSHINE LAKE PHARMA, published 2023)

Key:
[1] = target: T1, IL-11 protein (UniProt P20809 22-199, limits assumed); test: SPR (Biacore), IgG captured, IL-11 6.25-400 nM as analyte
T1 construct: also called IL-11 antigen
T1 sequence (looked up): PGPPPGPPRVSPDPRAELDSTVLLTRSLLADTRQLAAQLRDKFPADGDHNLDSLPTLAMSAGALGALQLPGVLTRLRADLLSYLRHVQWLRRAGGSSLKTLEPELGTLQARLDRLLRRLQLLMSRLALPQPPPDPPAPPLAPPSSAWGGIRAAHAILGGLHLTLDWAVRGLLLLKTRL
Procedure: (§1) The measure method included the steps of capturing the humanized antibody at a flow rate of 10 ul/min. […] Finally the chip was regenerated with 10 mM glycine buffer.

[2] = target: T1, IL-11 protein; test: SPR (Biacore), antibody captured, 400 nM IL-11 as analyte
Procedure: as §1

[3] = target: T2, recombinant CLC (R&D systems, 962-CL-050) (UniProt Q9UBD9 28-225); test: ELISA, cytokine coated
T2 sequence (looked up): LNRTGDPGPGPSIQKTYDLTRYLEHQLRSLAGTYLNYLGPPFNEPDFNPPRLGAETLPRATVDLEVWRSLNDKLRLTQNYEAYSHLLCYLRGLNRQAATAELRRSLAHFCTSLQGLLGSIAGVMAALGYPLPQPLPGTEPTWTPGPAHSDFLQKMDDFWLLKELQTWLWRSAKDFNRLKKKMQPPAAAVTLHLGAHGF

[4] = target: T3, recombinant OSM (Genscript-z03132) (UniProt P13725 26-234, limits assumed); test: ELISA, cytokine coated
T3 sequence (looked up): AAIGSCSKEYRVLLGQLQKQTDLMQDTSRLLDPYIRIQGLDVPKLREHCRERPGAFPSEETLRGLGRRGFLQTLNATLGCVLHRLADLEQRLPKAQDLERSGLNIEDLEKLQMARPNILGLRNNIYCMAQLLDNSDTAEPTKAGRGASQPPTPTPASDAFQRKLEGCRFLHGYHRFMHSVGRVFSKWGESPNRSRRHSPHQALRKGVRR

[5] = target: T4, recombinant IL-31 (Peprotech, 200-31) (UniProt Q6EBC2 24-164); test: ELISA, cytokine coated
T4 sequence (looked up): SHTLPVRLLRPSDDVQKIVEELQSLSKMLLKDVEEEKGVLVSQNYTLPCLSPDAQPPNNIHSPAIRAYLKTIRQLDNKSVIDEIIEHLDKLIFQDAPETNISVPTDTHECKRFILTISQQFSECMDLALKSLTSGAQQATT

[6] = target: T5, recombinant IL-27 (R&D systems, 2526-IL-010) (UniProt Q8NEV9 29-243; Q14213 21-229); test: ELISA, cytokine coated
T5 sequence (looked up) 1: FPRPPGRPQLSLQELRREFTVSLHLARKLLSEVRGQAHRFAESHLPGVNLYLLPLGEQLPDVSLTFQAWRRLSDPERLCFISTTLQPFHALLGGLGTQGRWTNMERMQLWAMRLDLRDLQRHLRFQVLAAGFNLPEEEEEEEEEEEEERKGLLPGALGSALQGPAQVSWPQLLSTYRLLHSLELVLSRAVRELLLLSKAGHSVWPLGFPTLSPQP
T5 sequence (looked up) 2: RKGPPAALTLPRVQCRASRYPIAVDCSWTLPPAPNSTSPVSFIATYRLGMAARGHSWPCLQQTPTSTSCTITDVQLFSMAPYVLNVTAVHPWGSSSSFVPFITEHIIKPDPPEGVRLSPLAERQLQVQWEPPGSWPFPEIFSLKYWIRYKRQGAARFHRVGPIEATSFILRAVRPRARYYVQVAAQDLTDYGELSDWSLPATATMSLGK

[7] = target: T6, recombinant CT-1 (R&D systems, 612-CD-010) (UniProt Q16619 2-201, limits assumed); test: ELISA, cytokine coated
T6 sequence (looked up): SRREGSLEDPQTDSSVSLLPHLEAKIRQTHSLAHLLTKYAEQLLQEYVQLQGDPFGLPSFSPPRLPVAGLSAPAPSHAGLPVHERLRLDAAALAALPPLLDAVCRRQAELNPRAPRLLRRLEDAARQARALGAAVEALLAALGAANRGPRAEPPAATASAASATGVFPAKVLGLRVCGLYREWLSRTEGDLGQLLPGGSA

[8] = target: recombinant IL-6 (Sinobiological-10395-HNAE) (UniProt P05231 30-212); test: ELISA, cytokine coated
[9] = target: recombinant LIF (Peprotech, 300-05) (UniProt P15018 23-202); test: ELISA, cytokine coated
recombinant LIF (Peprotech, 300-05), sequence (P15018 23-202 limits assumed): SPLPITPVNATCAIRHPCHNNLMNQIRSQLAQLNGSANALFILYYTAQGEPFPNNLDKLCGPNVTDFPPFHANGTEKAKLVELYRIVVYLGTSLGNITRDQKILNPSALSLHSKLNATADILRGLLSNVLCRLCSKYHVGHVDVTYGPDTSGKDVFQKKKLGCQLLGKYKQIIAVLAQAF

[10] = target: T7, recombinant IL-11 (LSBio, LS-G132887-10) (UniProt P20809 22-199); test: ELISA, cytokine coated
T7 construct: also called IL-11 cytokine
T7 sequence (looked up): T1 sequence (looked up)

[11] = target: T8, recombinant CNTF (R&D systems, 257-NT-010) (UniProt P26441 2-200); test: ELISA, cytokine coated
T8 sequence (looked up): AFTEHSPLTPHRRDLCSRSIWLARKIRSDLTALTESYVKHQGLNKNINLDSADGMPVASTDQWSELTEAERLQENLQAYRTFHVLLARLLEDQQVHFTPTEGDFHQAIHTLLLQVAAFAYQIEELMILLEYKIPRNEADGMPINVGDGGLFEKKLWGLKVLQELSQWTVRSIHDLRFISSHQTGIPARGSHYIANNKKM

[12] = target: T9, IL-11-Fc protein (UniProt P20809 22-199, limits assumed); test: flow competition: IL-11-Fc + antibody dilutions on membrane-IL-11R CHO cells
T9 construct: also called IL-11 recombinant protein with Fc tag; not shown: Fc tag
T9 sequence (looked up): T1 sequence (looked up)
Procedure: Then the plate was incubated with 1.5*10\hat{ }5 membrane-IL-11R CHO cells (100 ul/well) for 1 h at room temperature. After incubation, the plate was centrifuged at 1500 rpm for 5 min, washed three times with PBS, and 1:400 diluted flow secondary antibody Goat-anti-Fc-FITC (Abcam, ab98529) was added with 200 ul/well. Then, the plate was incubated at 4° C. for 1 h, centrifuged at 1500 rpm for 5 min, washed three times with PBS, resuspended cells in 180 ul PBS, and detected by flow cytometry.

[13] = target: T1, IL-11 protein; test: ELISA, monoclonal hybridoma supernatant on IL-11
From the text: Cell lines with high secretion of specific antibody were selected for expanded culture and cryopreservation.

B1: 5-20E11-5F2 (antibody, human IgG1, kappa, V domains shown)
VH: QVQLQQSGAELVRPGTSAKISCKASDYTFTNYWLGWLKQRPGHGLEWIGHIYPGGGYTNYNEKFKGKATLTADTSSSTAYMQLSSLTSEDSAVYFCARVRSGNDALDFWGQGTSVTVSS
VL: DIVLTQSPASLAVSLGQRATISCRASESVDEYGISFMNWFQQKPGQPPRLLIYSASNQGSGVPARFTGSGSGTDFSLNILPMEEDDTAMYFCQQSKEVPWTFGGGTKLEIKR
notes: also called 5-20E11-5F2 antibody; 5-20E11-5F2 mAb
What does the source list for B1?
Kd [1]: 6.41 nM; koff [1]: 0.000433 s⁻¹; kon [1]: 67600 M⁻¹ s⁻¹; Kd [2]: 2.09 nM; koff [2]: 0.000122 s⁻¹; kon [2]: 58400 M⁻¹ s⁻¹; OD450 nm [3]: 0.033; OD450 nm [4]: 0.045; OD450 nm [5]: 0.036; OD450 nm [6]: 0.048; OD450 nm [7]: 0.034; OD450 nm [8]: 0.049; OD450 nm [9]: 0.037; OD450 nm [10]: 1.93; OD450 nm [11]: 0.036; EC50 [12]: 7.54 µg/mL; OD450 [13]: 1.6
